Results taken from patent US8673856B2 (Anygen Co., Ltd., priority 2006, dated 2014).
No end group written: not given here.

Key:
[1] = target: T1, human N-type calcium channel (Homo sapiens, UniProt Q00975); assay type: cell-based
T1 construct: expressed in transfected cells; host or cells: HEK 293 (human embryonic kidney) cells

[2] = target: T1, human N-type calcium channel; assay type: cell-based; remark: listed apart in the source

## CKGTGKSCSRLMYNCCTGSCRSGKC-NH2 (CKGTGKSCSRLMYNCCTGSCRSGKC-NH2; ends and bridges not checked) [FVIA[I11L, A12M], FVIA with Ile11 and Ala12 mutated to Leu and Met]
[1]
  Reversibility: significantly reduced reversibility
[2]
  Calcium channel blocking activity: calcium channel blocking activity similar to FVIA
